Source: the supplement of paper PMC11780869

Tested on: Bacillus subtilis
Experiment: cleaved RNA product abundance (RNA/gDNA barcode ratio) relative to median wild-type variant (ratio to wild type); higher = more accumulation of the downstream cleavage product
In short: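 Cleaved product abundance for each construct is its RNA-to-gDNA barcode ratio, scaled to the median construct carrying the unmutated site. Cleaved RNA was isolated on a gel, reverse transcribed and barcode-sequenced, with genomic DNA barcodes sequenced alongside and UMIs collapsed. The reporters were truncated aprE or tetM mRNAs with barcoded, mutagenized RNase Y cleavage-site windows integrated into the B. subtilis chromosome, and cultures grew in LB at 37°C from OD600 0.0003 to 0.3.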

[1] = experiment (reporter, strain, medium): exp 8a: truncated aprE reporter, strain BJT201 with 2% xylose (RNase J1 expressed), cleavage site: glnRA (positions -5 to +31 mutated)
[2] = experiment (reporter, strain, medium): exp 4a: truncated aprE reporter, strain BJT201 with 2% xylose (RNase J1 expressed), cleavage site: cggR-gapA (positions -7 to +36 mutated)
[3] = experiment (reporter, strain, medium): exp 6: tetM reporter, strain 168, cleavage site: cggR-gapA (positions -7 to +36 mutated)
[4] = experiment (reporter, strain, medium): exp 2b: truncated aprE reporter, strain BJT200, cleavage site: cggR-gapA (positions -7 to +36 mutated)

CGACATGTCCCGCTTCTTTCATTAATCCGTTAGCAACTGTTTTGCTATATACATTTAGGTTTTAAGAGGAGGAAT
cleaved RNA product abundance [1]: 0.86

ACAGACGAAGGAGCCGCAAAGAACTTATTAAGGGATGAATAATCCCTTAATATAAATATCTCTCACTTATTTAAA
cleaved RNA product abundance [2]: 0.369 | cleaved RNA product abundance [3]: 0.271

CGACATGTCCCGCTTCTTTCATTAATCCGTTAGCAACTGTTTTTGTATATACATTTACCTTTTAAGAGGAGGAAT
cleaved RNA product abundance [1]: 0.494

CGACATGTCCCGCTTCTTTCATTACTCCGTTAGCAACTGTTTTGCTATATACATTTACCATTTAAGAGGAGGAAT
cleaved RNA product abundance [1]: 1.3

ACAGACGAAGGAGCCGCATAGAAGTTATTAAGGGATTAATAATCCCTCAATATAAATATCTCTCACTTATTTAAA
cleaved RNA product abundance [4]: 1 | cleaved RNA product abundance [2]: 1.38

ACAGACGAAGGAGCCGCAAAGAAGTTATTAAGGGACGAATAATCGCTCAATATAAATATCTCTCACTTATTTAAA
cleaved RNA product abundance [2]: 0.0681

CGACATGTCCCGCTTCTTTCATTAATCCGTTAGCAACTGTTTGGCTATATAAATTTACCTTTTAAGAGGAGGAAT
cleaved RNA product abundance [1]: 0.518

ACAGACGAAGGAGCCGCAAAGAAGTTATTAAGGGATGAATAATCACTCTATATAAATATCTCTCACTTATTTAAA
cleaved RNA product abundance [4]: 0.0929 | cleaved RNA product abundance [2]: 0.155

ACAGACGAAGGAGCCGCAAAGAAGTTATTAAGGGATGAATAATACCTCAAAATAAATATCTCTCACTTATTTAAA
cleaved RNA product abundance [2]: 0.155

CGACATGTCCCGCTTCTTTCATTAATCCGTAAGCAACTGTTTTGCTATATACATTTACCATTTAAGAGGAGGAAT
cleaved RNA product abundance [1]: 0.381

CGACATGTCCCGCTTCTTTCATTATTCCGTTAACAACTGTTTTGCTATATTCATTTACCTTTTAAGAGGAGGAAT
cleaved RNA product abundance [1]: 0.155

CGACATGTCCCGCTTCTTTCATTAATCCGTTATCAACTTTTTTGCTATATACATTTACCTTTTAAGAGGAGGAAT
cleaved RNA product abundance [1]: 0.387

ACAGACGAAGGAGCCGCAAAGAAGTTATTAAGAGATGAATAATCCCTTAATATAAATATCTCTCACTTATTTAAA
cleaved RNA product abundance [4]: 0.727 | cleaved RNA product abundance [2]: 0.431

ACAGACGAAGGAGCCGCAAAGAAGTTATTAAGGGATGAATAAACCCTCAATATAGATATCTCTCACTTATTTAAA
cleaved RNA product abundance [4]: 0.365 | cleaved RNA product abundance [2]: 0.342

ACAGACGAAGGAGCCGCAAAGAAGTTATTAAGGGATGAATAATCCCTAAATATAAATATTTCTCACTTATTTAAA
cleaved RNA product abundance [2]: 0.836

CGACATGTCCCGCTTCTTTCATTAATCCGTTAGCAACTATTTTGCTATATACATTTACTTTTTAAGAGGAGGAAT
cleaved RNA product abundance [1]: 1.55

ACAGACGAAGGAGCCGCAAAGAAGTTATTAAGAGATCAATAATCCCTCAATATAAATATCTCTCACTTATTTAAA
cleaved RNA product abundance [4]: 0.0924 | cleaved RNA product abundance [2]: 0.0785

CGACATGTCCCGCTTCTTTCATTAATCCGTTAGCAACTGTTTTGCTATATACATATAACTTTTAAGAGGAGGAAT
cleaved RNA product abundance [1]: 1.73

ACAGACGAAGGAGCCGCAAAGAAGTTATTAATGGATGAATAATCCCTCACTATAAATATCTCTCACTTATTTAAA
cleaved RNA product abundance [4]: 0.0821

ACAGACGAAGGAGCCGCAAAGAAGTTATTAAGGGATGAATAATCCCTCACTATAAATATCTCTCACTTATTTAAA
cleaved RNA product abundance [4]: 0.215 | cleaved RNA product abundance [2]: 0.277 | cleaved RNA product abundance [3]: 0.208

ACAGACGAAGGAGCCGCAAAGAAGTTATTAAATGATGAATAATCCCTCAATATATATATCTCTCACTTATTTAAA
cleaved RNA product abundance [2]: 0.13

ACAGACGAAGGAGCCGCAAAGTAGTTCTTAAGGGATGAATAATCCCTCAATATAAATATCTCTCACTTATTTAAA
cleaved RNA product abundance [2]: 0.195

ACAGACGAAGGAGCCGCAAAGAAGTTATGAAGGGAGGAATAATCCCTCAATATAAATATCTCTCACTTATTTAAA
cleaved RNA product abundance [4]: 0.22

CGACATGTCCCGCTTCTTTCATTAATCCGTTAGCAACTGTTTTACTATATACATATACCTTTTAAGAGGAGGAAT
cleaved RNA product abundance [1]: 1.11

ACAGACGAAGGAGCCGCAAAGAAGTTAGTAAGGGATGAATAATCCCTTAATATAAATATCTCTCACTTATTTAAA
cleaved RNA product abundance [2]: 0.724

ACAGACGAAGGAGCCGCAAAGAAGATATTAAGTGATGAATAATCCCTCAATATAAATATCTCTCACTTATTTAAA
cleaved RNA product abundance [4]: 0.103 | cleaved RNA product abundance [2]: 0.137

CGACATGTCCCGCTTCTTTCATTAATCCGTTAGCAACTGTTTAGGTATATACATTTACCTTTTAAGAGGAGGAAT
cleaved RNA product abundance [1]: 0.227

ACAGACGAAGGAGCCGCAAAGAAGTTATTAAGGGATAAATAATCCCTCAATATAAAGATCTCTCACTTATTTAAA
cleaved RNA product abundance [4]: 0.482 | cleaved RNA product abundance [2]: 0.505

CGACATGTCCCGCTTCTTTCATTAACCCGTAAGCAACTGTTTTGCTATATACATTTACCTTTTAAGAGGAGGAAT
cleaved RNA product abundance [1]: 0.312
